From article PMC8991989

Target: Epidermal growth factor receptor (EGFR), labelled for MST (UniProt P00533)
Assay: MST

For “FIP-nha, a fungal immunomodulatory protein from Nectria haematococca (natural protein)”, the Kd was 15.5 µM.
